{"source": "patent US11479601B2", "about": "“Antibodies specific to Sonic Hedgehog and method of use thereof” (The Regents of the University of California, priority 2016, dated 2022)", "key": {"[1]": {"test_system": "A549 cell subcutaneous xenograft tumor", "assay": "A549 subcutaneous xenograft, intra-tumor injection of C-terminal Shh antibody", "assay_type": "in vivo, mice", "description": "For xenograft formation, female nude mice, 5 to 10 weeks old, were injected subcutaneously (SC) with 10 million A549 cells in the dorsal area in a volume of […]. For SC inoculation of sorted cells, 1,500 cells of A549 Shh+ or Shh− cells were injected in a volume of […]. For intra-veinous injection of sorted cells, 1,000 cells of A549 Shh+ or Shh− cells were injected in the tail vein. For the in vivo treatment assay, after xenograft formation, animals were injected intravenously with cisplatin (10 mg/kg weekly), docetaxel (10 mg/kg twice a week) or vehicle, and intraperitoneally with GDC0449 (20 mg/kg daily) or vehicle. Each group consisted in 4-5 mice. Tumor size was determined twice a week, and tumor volumes were calculated using width (x) and length (y) (x^2y/2, where x<y). Tumors were collected after mice euthanasia, and cell dissociation was performed as for fresh human samples (cf supra). Flow cytometry and FACS were done as described supra. All animals were cared in accord with University of California San Francisco (UCSF) guidelines.\n(§1) The in vivo effect of the C-terminal Shh antibodies were tested using the A549 cell subcutaneous xenograft tumor model in mice, as described in Example 1. After xenograft formation, animals were intra-tumor injected with a C terminal Shh antibody (2G4 or 2D9; each at 158 μg), or a control solution, 3 times a week for about 3 weeks (at 2-3 day intervals). Tumor volume was determined, as described in Example 1, every 2 days. Weight and size of the excised tumor were determined after the antibody treatment. A portion of the excised tumor was sectioned for immunohistochemical analysis of Shh protein expression, and RNA was extracted from another portion of the excised tumor for analysis of Gli1 expression."}, "[2]": {"test_system": "Shh 247-264 AA and Shh 448-462 AA peptides", "assay": "Biolayer interferometry (Octet RED 384) with Shh peptide-mimic ligands", "assay_type": "binding, human", "conditions": "37-3000 nM peptides; versus IgG control antibody", "description": "Antibody immobilization was checked via Octet® Software (ForteBio) prior to introduction of increasing concentrations (37, 111, 333, 1000, 3000 nM) of Sonic Hedgehog peptide-mimic ligands (Shh 247-264 AA and Shh 448-462 AA). Graphical output from the Octet® Software of representative data from two independent experiments is presented."}, "NSCLC A549 cells": {"test_system": "NSCLC A549 cells", "assay": "CellTiter-Glo cell viability assay, A549", "assay_type": "cell-based, human", "conditions": "96 hours, compared with controls", "description": "(§2) Logarithmically growing cells were plated in antibiotic-free medium supplemented with 2% fetal bovine serum at a density of 5,000 cells per well in clear-bottom 96-well plates. The next day cells were treated (triplicates) with increasing doses of in-house therapeutic antibodies (reconstituted in PBS) or PBS controls for 96 hours and subsequently assessed for cell viability by measuring ATP content with CellTiter-Glo Luminescent Cell Viability Assay (Promega). Signal intensity was measured on a Glomax™ 96 Microplate Luminometer (Promega) and percent cell survival was calculated based on the reading of PBS control cells set as 100%."}, "[3]": {"test_system": "other lung and pancreatic cancer cell lines", "assay": "CellTiter-Glo cell viability assay, other cancer cell lines", "assay_type": "cell-based", "conditions": "96 hours", "description": "as §2"}, "Shh protein": {"test_system": "Shh protein", "assay": "Ex vivo Shh staining of excised A549 xenograft tumors", "assay_type": "in vivo, mice", "description": "as §1\nControl IgG and Ab 1C11-2G4-treated A549 tumors harvested from mice were sectioned ([…]) and stained with a commercially available Sonic Hedgehog (Shh) antibody (Abcam 53281, 1:100) post acetone fixation, 0.2% Triton-X 100 permeabilization and serum blocking steps. A FITC-conjugated secondary antibody (1:1000) and […] DAPI (Vector Laboratories) mounting medium were used to stain sections prior to imaging at 20× magnification using a Zeiss Axiolmager 2 fluorescence microscope. Captured images were processed via ImageJ software (available at https://imagej.nih.gov/ij/download.html) and representative images are presented.\nTo assess the effects of antibody administration on hedgehog epitope occupancy, tumors were sectioned and stained with a commercial antibody specific for sonic hedgehog (Shh). […] Confirmatory results were observed when ground up permeabilized tumor cells were labeled with the commercially available Shh antibody and assessed using flow cytometry; 1C11-2G4-treated tumors (20%-Shh-labeled) contrasted with IgG controls (80%-Shh-labeled) (FIG. 46B)."}}, "note": "“And” between values parts separate entries of the source, which are not always exact repeats. Equal entries are not always repeated."}
{"molecule": "2G4: purified mouse monoclonal C-terminal Shh antibody from hybridoma sub-clone 2G4 of clone 1C11, IgG1 kappa (antibody, V domains shown) VH: EVKLVESGGGLVKPGGSLKLSCAASGFTFSSYTMSWVRQTPAKRLEWVATISSGGGNTYYPDSVKGRFTISRDNARNTLYLQMSSLRSEDTAMYYCARDYRSLFAYWGQGTLVTVSA VL: QIVLTQSPAIMSASPGEKVTITCSASSSVSYMHWFQQKPGTSPKLWIYSTSNLASGVPARFSGSGSGTSYSLTISRMEAEDAATYYCQQRSSYPFTFGSGTKLEIK", "values": [{"measurement": "Average % change in tumor volume, relative to day −2", "setting": "[1]; Day 0", "result": 104.50, "unit": "%"}, {"measurement": "Average change in tumor volume", "setting": "[1]; Day 0, 158 μg intra-tumor 3 times a week", "result": 14.6, "unit": "mm^3"}, {"measurement": "Average % change in tumor volume, relative to day −2", "setting": "[1]; Day 2", "result": 90.20, "unit": "%"}, {"measurement": "Average change in tumor volume", "setting": "[1]; Day 2", "result": "−21.7", "unit": "mm^3"}, {"measurement": "Average % change in tumor volume, relative to day −2", "setting": "[1]; Day 5", "result": 103.10, "unit": "%"}, {"measurement": "Average change in tumor volume", "setting": "[1]; Day 5", "result": 15.3, "unit": "mm^3"}, {"measurement": "Average % change in tumor volume, relative to day −2", "setting": "[1]; Day 7", "result": 105.80, "unit": "%"}, {"measurement": "Average change in tumor volume", "setting": "[1]; Day 7", "result": 33.5, "unit": "mm^3"}, {"measurement": "Average % change in tumor volume, relative to day −2", "setting": "[1]; Day 12", "result": 121.90, "unit": "%"}, {"measurement": "Average change in tumor volume", "setting": "[1]; Day 12", "result": 103, "unit": "mm^3"}, {"measurement": "Average % change in tumor volume, relative to day −2", "setting": "[1]; Day 14", "result": 137.70, "unit": "%"}, {"measurement": "Average change in tumor volume", "setting": "[1]; Day 14", "result": 138.2, "unit": "mm^3"}, {"measurement": "Average % change in tumor volume, relative to day −2", "setting": "[1]; Day 16", "result": 148, "unit": "%"}, {"measurement": "Average change in tumor volume", "setting": "[1]; Day 16", "result": 174.04, "unit": "mm^3"}, {"measurement": "Average % change in tumor volume, relative to day −2", "setting": "[1]; Day 19", "result": 189.60, "unit": "%"}, {"measurement": "Average change in tumor volume", "setting": "[1]; Day 19", "result": 277.7, "unit": "mm^3"}, {"measurement": "Average % change in tumor volume, relative to day −2", "setting": "[1]; Day 21", "result": 202.40, "unit": "%"}, {"measurement": "Average change in tumor volume", "setting": "[1]; Day 21", "result": 337.8, "unit": "mm^3"}, {"measurement": "Average % change in tumor volume, relative to day −2", "setting": "[1]; Day −2", "result": 100, "unit": "%"}, {"measurement": "Weight of tumor after treatment, AVG", "setting": "[1]; average of 3 animals", "result": 0.0644}, {"measurement": "Weight of tumor after treatment", "setting": "[1]; individual animals", "result": "0.048 and 0.0966 and 0.0486"}, {"measurement": "binding response to Shh peptide-mimic ligands (BLI)", "setting": "[2]", "result": "increases in binding response"}, {"measurement": "A549 tumor cell proliferation / cell viability", "setting": "NSCLC A549 cells", "result": "marginally stronger anti-proliferative capacity"}, {"measurement": "growth of other lung and pancreatic cancer cell lines", "setting": "[3]", "result": "inhibited the growth"}, {"measurement": "cells expressing Shh protein in excised tumor (immunostaining)", "setting": "Shh protein; intra-tumor antibody 158 μg, compared to control tumor samples", "result": "fewer cells expressing Shh protein"}, {"measurement": "number of Shh-labeled cells in permeabilized tumor sections (immunofluorescence)", "setting": "Shh protein; tumors after 8 mg/kg treatment, versus IgG controls", "result": "significant reduction in the number of Shh-labeled cells"}, {"measurement": "Shh-labeled cells in ground up permeabilized tumor cells (flow cytometry, commercial Shh antibody)", "setting": "Shh protein; tumors after 8 mg/kg treatment, IgG controls 80%", "result": 20, "unit": "%"}]}
